Experimental data reported in the Human Domainome abundance scans (Beltran et al. 2025).
± gives the uncertainty stated by the source.

Experiment: abundance fitness (aPCA) (normalised: wild type 0, dead -1); higher = more abundant; growth selection in yeast, the domain comes from the species named
Conditions: Homo sapiens

“E3 ubiquitin-protein ligase NEDD4-like D228V, Q96PU5” and “E3 ubiquitin-protein ligase NEDD4-like N215Q, Q96PU5” are within error of each other in abundance fitness: -0.159 ± 0.071 for the first, -0.081 ± 0.091 for the second.

First: E3 ubiquitin-protein ligase NEDD4-like P196L, Q96PU5
Second: E3 ubiquitin-protein ligase NEDD4-like S184F, Q96PU5
The abundance fitness of the first is lower: -0.126 ± 0.078 for the first, 0.13 ± 0.084 for the second.

First: E3 ubiquitin-protein ligase NEDD4-like W221S, Q96PU5
Second: E3 ubiquitin-protein ligase NEDD4-like R217T, Q96PU5
The abundance fitness of the first is higher: 0.124 ± 0.063 for the first, -0.069 ± 0.081 for the second.

Compared with “E3 ubiquitin-protein ligase NEDD4-like L206V, Q96PU5”, “E3 ubiquitin-protein ligase NEDD4-like D204M, Q96PU5” is lower in abundance fitness: -0.056 ± 0.062 for the first, -0.751 ± 0.075 for the second.

First: E3 ubiquitin-protein ligase NEDD4-like V203R, Q96PU5
Second: E3 ubiquitin-protein ligase NEDD4-like E200Y, Q96PU5
The abundance fitness of the first is higher: 0.007 ± 0.054 for the first, -0.357 ± 0.072 for the second.

“E3 ubiquitin-protein ligase NEDD4-like Q185V, Q96PU5” and “E3 ubiquitin-protein ligase NEDD4-like R223D, Q96PU5” are within error of each other in abundance fitness: -0.332 ± 0.075 for the first, -0.481 ± 0.098 for the second.

First: E3 ubiquitin-protein ligase NEDD4-like H186I, Q96PU5
Second: E3 ubiquitin-protein ligase NEDD4-like Y210F, Q96PU5
The abundance fitness of the first is higher: 0.086 ± 0.12 for the first, -0.255 ± 0.1 for the second.

“E3 ubiquitin-protein ligase NEDD4-like T218W, Q96PU5” and “E3 ubiquitin-protein ligase NEDD4-like K202L, Q96PU5” are within error of each other in abundance fitness: -0.084 ± 0.075 for the first, -0.205 ± 0.074 for the second.

Compared with “E3 ubiquitin-protein ligase NEDD4-like T219Y, Q96PU5”, “E3 ubiquitin-protein ligase NEDD4-like W199F, Q96PU5” is higher in abundance fitness: -0.451 ± 0.089 for the first, 0.004 ± 0.079 for the second.

Compared with “E3 ubiquitin-protein ligase NEDD4-like H222C, Q96PU5”, “E3 ubiquitin-protein ligase NEDD4-like E188L, Q96PU5” is lower in abundance fitness: -0.052 ± 0.094 for the first, -0.459 ± 0.28 for the second.

“E3 ubiquitin-protein ligase NEDD4-like S230P, Q96PU5” and “E3 ubiquitin-protein ligase NEDD4-like S225M, Q96PU5” are within error of each other in abundance fitness: -0.027 ± 0.085 for the first, -0.136 ± 0.092 for the second.

First: E3 ubiquitin-protein ligase NEDD4-like M227D, Q96PU5
Second: E3 ubiquitin-protein ligase NEDD4-like P197W, Q96PU5
The abundance fitness of the first is higher: 0.065 ± 0.12 for the first, -0.237 ± 0.089 for the second.

First: E3 ubiquitin-protein ligase NEDD4-like H186G, Q96PU5
Second: E3 ubiquitin-protein ligase NEDD4-like Q185F, Q96PU5
The abundance fitness of the first is lower: -0.461 ± 0.067 for the first, -0.257 ± 0.12 for the second.

“E3 ubiquitin-protein ligase NEDD4-like P191V, Q96PU5” and “E3 ubiquitin-protein ligase NEDD4-like S225L, Q96PU5” are within error of each other in abundance fitness: -0.028 ± 0.058 for the first, -0.095 ± 0.056 for the second.

Compared with “E3 ubiquitin-protein ligase NEDD4-like D204E, Q96PU5”, “E3 ubiquitin-protein ligase NEDD4-like Q187N, Q96PU5” is higher in abundance fitness: -0.505 ± 0.089 for the first, -0.001 ± 0.072 for the second.

Going from “E3 ubiquitin-protein ligase NEDD4-like W199M, Q96PU5” to “E3 ubiquitin-protein ligase NEDD4-like W221G, Q96PU5”, the abundance fitness rises from -0.514 ± 0.089 to -0.219 ± 0.063.

“E3 ubiquitin-protein ligase NEDD4-like T218M, Q96PU5” and “E3 ubiquitin-protein ligase NEDD4-like P192N, Q96PU5” are within error of each other in abundance fitness: -0.128 ± 0.089 for the first, -0.014 ± 0.059 for the second.

Compared with “E3 ubiquitin-protein ligase NEDD4-like H214L, Q96PU5”, “E3 ubiquitin-protein ligase NEDD4-like D204L, Q96PU5” is lower in abundance fitness: -0.05 ± 0.051 for the first, -0.803 ± 0.072 for the second.

First: E3 ubiquitin-protein ligase NEDD4-like S230V, Q96PU5
Second: E3 ubiquitin-protein ligase NEDD4-like R208E, Q96PU5
The abundance fitness of the first is lower: -0.136 ± 0.059 for the first, 0.047 ± 0.083 for the second.

Compared with “E3 ubiquitin-protein ligase NEDD4-like E201H, Q96PU5”, “E3 ubiquitin-protein ligase NEDD4-like G207I, Q96PU5” is lower in abundance fitness: -0.223 ± 0.13 for the first, -0.96 ± 0.061 for the second.

Compared with “E3 ubiquitin-protein ligase NEDD4-like Q220I, Q96PU5”, “E3 ubiquitin-protein ligase NEDD4-like M227I, Q96PU5” is higher in abundance fitness: -0.371 ± 0.12 for the first, -0.135 ± 0.073 for the second.

Compared with “E3 ubiquitin-protein ligase NEDD4-like H214S, Q96PU5”, “E3 ubiquitin-protein ligase NEDD4-like Q220H, Q96PU5” is lower in abundance fitness: -0.035 ± 0.057 for the first, -0.775 ± 0.17 for the second.

First: E3 ubiquitin-protein ligase NEDD4-like Y210S, Q96PU5
Second: E3 ubiquitin-protein ligase NEDD4-like L206P, Q96PU5
The abundance fitness of the first is higher: -0.359 ± 0.071 for the first, -0.707 ± 0.11 for the second.

First: E3 ubiquitin-protein ligase NEDD4-like G198Y, Q96PU5
Second: E3 ubiquitin-protein ligase NEDD4-like E189W, Q96PU5
The abundance fitness of the first is higher: -0.049 ± 0.069 for the first, -0.56 ± 0.065 for the second.

“E3 ubiquitin-protein ligase NEDD4-like P197E, Q96PU5” and “E3 ubiquitin-protein ligase NEDD4-like D228P, Q96PU5” are within error of each other in abundance fitness: 0.031 ± 0.074 for the first, 0.099 ± 0.07 for the second.

Going from “E3 ubiquitin-protein ligase NEDD4-like P224Y, Q96PU5” to “E3 ubiquitin-protein ligase NEDD4-like M227C, Q96PU5”, the abundance fitness rises from -1.18 ± 0.095 to -0.05 ± 0.059.

Compared with “E3 ubiquitin-protein ligase NEDD4-like M227K, Q96PU5”, “E3 ubiquitin-protein ligase NEDD4-like G198L, Q96PU5” is lower in abundance fitness: -0.015 ± 0.093 for the first, -0.209 ± 0.054 for the second.

Compared with “E3 ubiquitin-protein ligase NEDD4-like R223C, Q96PU5”, “E3 ubiquitin-protein ligase NEDD4-like P193I, Q96PU5” is higher in abundance fitness: -0.552 ± 0.09 for the first, -0.079 ± 0.052 for the second.

First: E3 ubiquitin-protein ligase NEDD4-like V212C, Q96PU5
Second: E3 ubiquitin-protein ligase NEDD4-like R217P, Q96PU5
The abundance fitness of the first is higher: -0.097 ± 0.076 for the first, -0.267 ± 0.085 for the second.

Compared with “E3 ubiquitin-protein ligase NEDD4-like D228N, Q96PU5”, “E3 ubiquitin-protein ligase NEDD4-like P193Q, Q96PU5” is lower in abundance fitness: 0.063 ± 0.097 for the first, -0.21 ± 0.098 for the second.

Compared with “E3 ubiquitin-protein ligase NEDD4-like R223V, Q96PU5”, “E3 ubiquitin-protein ligase NEDD4-like L195F, Q96PU5” is lower in abundance fitness: -0.249 ± 0.064 for the first, -0.902 ± 0.38 for the second.

“E3 ubiquitin-protein ligase NEDD4-like P197L, Q96PU5” and “E3 ubiquitin-protein ligase NEDD4-like S225Q, Q96PU5” are the same in abundance fitness: 0.048 ± 0.075 for the first, 0.048 ± 0.063 for the second.

“E3 ubiquitin-protein ligase NEDD4-like S184Y, Q96PU5” and “E3 ubiquitin-protein ligase NEDD4-like W221K, Q96PU5” are within error of each other in abundance fitness: -0.099 ± 0.12 for the first, -0.044 ± 0.1 for the second.

Going from “E3 ubiquitin-protein ligase NEDD4-like T218A, Q96PU5” to “E3 ubiquitin-protein ligase NEDD4-like T219N, Q96PU5”, the abundance fitness falls from -0.045 ± 0.057 to -0.221 ± 0.067.

Compared with “E3 ubiquitin-protein ligase NEDD4-like Q220S, Q96PU5”, “E3 ubiquitin-protein ligase NEDD4-like H214W, Q96PU5” is lower in abundance fitness: 0.184 ± 0.065 for the first, -0.068 ± 0.066 for the second.

“E3 ubiquitin-protein ligase NEDD4-like V203M, Q96PU5” and “E3 ubiquitin-protein ligase NEDD4-like E189C, Q96PU5” are within error of each other in abundance fitness: -0.096 ± 0.059 for the first, -0.176 ± 0.062 for the second.

“E3 ubiquitin-protein ligase NEDD4-like E232R, Q96PU5” and “E3 ubiquitin-protein ligase NEDD4-like P224D, Q96PU5” are within error of each other in abundance fitness: -0.999 ± 0.24 for the first, -0.772 ± 0.14 for the second.

Compared with “E3 ubiquitin-protein ligase NEDD4-like T218N, Q96PU5”, “E3 ubiquitin-protein ligase NEDD4-like T218K, Q96PU5” is higher in abundance fitness: -0.244 ± 0.11 for the first, -0.06 ± 0.072 for the second.

Going from “E3 ubiquitin-protein ligase NEDD4-like H222M, Q96PU5” to “E3 ubiquitin-protein ligase NEDD4-like Q185C, Q96PU5”, the abundance fitness falls from 0.173 ± 0.093 to -0.793 ± 0.065.

“E3 ubiquitin-protein ligase NEDD4-like P197A, Q96PU5” and “E3 ubiquitin-protein ligase NEDD4-like P197V, Q96PU5” are within error of each other in abundance fitness: 0.022 ± 0.071 for the first, -0.009 ± 0.06 for the second.

“E3 ubiquitin-protein ligase NEDD4-like N205G, Q96PU5” and “E3 ubiquitin-protein ligase NEDD4-like Y210L, Q96PU5” are within error of each other in abundance fitness: -0.321 ± 0.054 for the first, -0.261 ± 0.058 for the second.

First: E3 ubiquitin-protein ligase NEDD4-like H222Q, Q96PU5
Second: E3 ubiquitin-protein ligase NEDD4-like D228F, Q96PU5
The abundance fitness of the first is higher: -0.022 ± 0.1 for the first, -0.329 ± 0.11 for the second.

Compared with “E3 ubiquitin-protein ligase NEDD4-like E188S, Q96PU5”, “E3 ubiquitin-protein ligase NEDD4-like N213R, Q96PU5” is lower in abundance fitness: 0.089 ± 0.22 for the first, -0.56 ± 0.069 for the second.

Compared with “E3 ubiquitin-protein ligase NEDD4-like E232G, Q96PU5”, “E3 ubiquitin-protein ligase NEDD4-like N215I, Q96PU5” is higher in abundance fitness: -0.287 ± 0.12 for the first, -0.077 ± 0.084 for the second.

Compared with “E3 ubiquitin-protein ligase NEDD4-like D228K, Q96PU5”, “E3 ubiquitin-protein ligase NEDD4-like E189G, Q96PU5” is lower in abundance fitness: -0.002 ± 0.079 for the first, -0.241 ± 0.058 for the second.

“E3 ubiquitin-protein ligase NEDD4-like G207H, Q96PU5” and “E3 ubiquitin-protein ligase NEDD4-like S231A, Q96PU5” are within error of each other in abundance fitness: -0.171 ± 0.066 for the first, -0.099 ± 0.075 for the second.

Going from “E3 ubiquitin-protein ligase NEDD4-like R208N, Q96PU5” to “E3 ubiquitin-protein ligase NEDD4-like W199L, Q96PU5”, the abundance fitness falls from 0.225 ± 0.11 to -0.502 ± 0.058.

Substance “E3 ubiquitin-protein ligase NEDD4-like H222D, Q96PU5” has an abundance fitness of 0.071 ± 0.067.
